Measurements published in patent US20220378829A1 (CRISPR THERAPEUTICS, published 2022).

Target: T1, CD70 on human cancer cell lines (A498, ACHN, SK-OV-3, Hs 766T, NCI-H1975, Calu-1, DU 145, SNU-1, MM.1S, HuT78) (human, UniProt P32970 1-193)
T1 sequence (looked up): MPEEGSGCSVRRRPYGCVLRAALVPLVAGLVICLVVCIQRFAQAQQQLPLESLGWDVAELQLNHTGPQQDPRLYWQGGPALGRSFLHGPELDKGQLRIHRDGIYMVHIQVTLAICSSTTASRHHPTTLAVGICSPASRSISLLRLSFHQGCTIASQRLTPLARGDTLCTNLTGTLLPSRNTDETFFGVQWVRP
Test: cell-based or functional assay

- cell lysis of A498 cells by TRAC-/β2M-/CD70-/anti-CD70 CAR+ T cells, T cell:A498 ratios 1:1 and 0.5:1, 24 h (Cell titer-Glo): > 90%
- cell lysis of A498 cells by TRAC-/β2M-/anti-CD70 CAR+ T cells (2×KO), T cell:A498 ratios 1:1 and 0.5:1, 24 h (Cell titer-Glo): < 90%
B1: anti-CD70 CAR (CD70B scFv with 41BB), expressed on the surface of gene-edited human T cells (CTX130: TRAC-/β2M-/CD70-/anti-CD70 CAR+ T cells) (other)
chain: QVQLVQSGAEVKKPGASVKVSCKASGYTFTNYGMNWVRQAPGQGLKWMGWINTYTGEPTYADAFKGRVTMTRDTSISTAYMELSRLRSDDTAVYYCARDYGDYGMDYWGQGTTVTVSSGGGGSGGGGSGGGGSGDIVMTQSPDSLAVSLGERATINCRASKSVSTSGYSFMHWYQQKPGQPPKLLIYLASNLESGVPDRFSGSGSGTDFTLTISSLQAEDVAVYYCQHSREVPWTFGQGTKVEIKSAAAFVPVFLPAKPTTTPAPRPPTPAPTIASQPLSLRPEACRPAAGGAVHTRGLDFACDIYIWAPLAGTCGVLLLSLVITLYCNHRNRKRGRKKLLYIFKQPFMRPVQTTQEEDGCSCRFPEEEEGGCELRVKFSRSADAPAYQQGQNQLYNELNLGRREEYDVLDKRRGRDPEMGGKPRRKNPQEGLYNELQKDKMAEAYSEIGMKGERRRGKGHDGLYQGLSTATKDTYDALHMQALPPR
